{"source": "the Immune Epitope Database (IEDB)", "key": {"HLA-A*01:01": {"biological_target": "HLA-A*01:01", "assay": "IEDB peptide-MHC binding, purified MHC/direct/fluorescence; filed as Kd, often an IC50 or EC50 that approximates it; ≥ and ≤ were set here for values at or beyond the usual limits of such assays", "settings": "source organism: Orthohantavirus andesense"}, "HLA-A*25:01": {"biological_target": "HLA-A*25:01", "assay": "IEDB peptide-MHC binding, purified MHC/direct/fluorescence; filed as Kd, often an IC50 or EC50 that approximates it; ≥ and ≤ were set here for values at or beyond the usual limits of such assays", "settings": "source organism: Orthohantavirus tulaense"}, "HLA-A*29:02": {"biological_target": "HLA-A*29:02", "assay": "IEDB peptide-MHC binding, purified MHC/direct/fluorescence; filed as Kd, often an IC50 or EC50 that approximates it; ≥ and ≤ were set here for values at or beyond the usual limits of such assays", "settings": "source organism: Orthohantavirus tulaense"}, "HLA-A*80:01": {"biological_target": "HLA-A*80:01", "assay": "IEDB peptide-MHC binding, purified MHC/direct/fluorescence; filed as Kd, often an IC50 or EC50 that approximates it; ≥ and ≤ were set here for values at or beyond the usual limits of such assays", "settings": "source organism: Orthohantavirus andesense"}, "HLA-B*07:02": {"biological_target": "HLA-B*07:02", "assay": "IEDB peptide-MHC binding, purified MHC/direct/fluorescence; filed as Kd, often an IC50 or EC50 that approximates it; ≥ and ≤ were set here for values at or beyond the usual limits of such assays", "settings": "source organism: Orthohantavirus tulaense"}, "HLA-B*40:01": {"biological_target": "HLA-B*40:01", "assay": "IEDB peptide-MHC binding, purified MHC/direct/fluorescence; filed as Kd, often an IC50 or EC50 that approximates it; ≥ and ≤ were set here for values at or beyond the usual limits of such assays", "settings": "source organism: Orthohantavirus tulaense"}, "HLA-B*51:01": {"biological_target": "HLA-B*51:01", "assay": "IEDB peptide-MHC binding, purified MHC/direct/fluorescence; filed as Kd, often an IC50 or EC50 that approximates it; ≥ and ≤ were set here for values at or beyond the usual limits of such assays", "settings": "source organism: Orthohantavirus tulaense"}, "HLA-C*03:03": {"biological_target": "HLA-C*03:03", "assay": "IEDB peptide-MHC binding, purified MHC/direct/fluorescence; filed as Kd, often an IC50 or EC50 that approximates it; ≥ and ≤ were set here for values at or beyond the usual limits of such assays", "settings": "source organism: Rickettsia bellii RML369-C"}, "HLA-C*05:01": {"biological_target": "HLA-C*05:01", "assay": "IEDB peptide-MHC binding, purified MHC/direct/fluorescence; filed as Kd, often an IC50 or EC50 that approximates it; ≥ and ≤ were set here for values at or beyond the usual limits of such assays", "settings": "source organism: Rickettsia bellii RML369-C"}, "HLA-C*07:02": {"biological_target": "HLA-C*07:02", "assay": "IEDB peptide-MHC binding, purified MHC/direct/fluorescence; filed as Kd, often an IC50 or EC50 that approximates it; ≥ and ≤ were set here for values at or beyond the usual limits of such assays", "settings": "source organism: Rickettsia bellii RML369-C"}, "HLA-C*08:02": {"biological_target": "HLA-C*08:02", "assay": "IEDB peptide-MHC binding, purified MHC/direct/fluorescence; filed as Kd, often an IC50 or EC50 that approximates it; ≥ and ≤ were set here for values at or beyond the usual limits of such assays", "settings": "source organism: Rickettsia bellii RML369-C"}, "HLA-C*12:03": {"biological_target": "HLA-C*12:03", "assay": "IEDB peptide-MHC binding, purified MHC/direct/fluorescence; filed as Kd, often an IC50 or EC50 that approximates it; ≥ and ≤ were set here for values at or beyond the usual limits of such assays", "settings": "source organism: Rickettsia bellii RML369-C"}, "HLA-C*14:02": {"biological_target": "HLA-C*14:02", "assay": "IEDB peptide-MHC binding, purified MHC/direct/fluorescence; filed as Kd, often an IC50 or EC50 that approximates it; ≥ and ≤ were set here for values at or beyond the usual limits of such assays", "settings": "source organism: Rickettsia bellii RML369-C"}, "HLA-C*15:02": {"biological_target": "HLA-C*15:02", "assay": "IEDB peptide-MHC binding, purified MHC/direct/fluorescence; filed as Kd, often an IC50 or EC50 that approximates it; ≥ and ≤ were set here for values at or beyond the usual limits of such assays", "settings": "source organism: Rickettsia bellii RML369-C"}, "HLA-A*68:23": {"biological_target": "HLA-A*68:23", "assay": "IEDB peptide-MHC binding, purified MHC/competitive/fluorescence; filed as Kd, often an IC50 or EC50 that approximates it; ≥ and ≤ were set here for values at or beyond the usual limits of such assays", "settings": "source organism: Rickettsia bellii RML369-C"}, "HLA-B*15:02": {"biological_target": "HLA-B*15:02", "assay": "IEDB peptide-MHC binding, purified MHC/competitive/fluorescence; filed as Kd, often an IC50 or EC50 that approximates it; ≥ and ≤ were set here for values at or beyond the usual limits of such assays", "settings": "source organism: Rickettsia bellii RML369-C"}, "HLA-B*15:42": {"biological_target": "HLA-B*15:42", "assay": "IEDB peptide-MHC binding, purified MHC/competitive/fluorescence; filed as Kd, often an IC50 or EC50 that approximates it; ≥ and ≤ were set here for values at or beyond the usual limits of such assays", "settings": "source organism: Rickettsia bellii RML369-C"}, "HLA-B*27:20": {"biological_target": "HLA-B*27:20", "assay": "IEDB peptide-MHC binding, purified MHC/competitive/fluorescence; filed as Kd, often an IC50 or EC50 that approximates it; ≥ and ≤ were set here for values at or beyond the usual limits of such assays", "settings": "source organism: Rickettsia bellii RML369-C"}, "HLA-B*45:06": {"biological_target": "HLA-B*45:06", "assay": "IEDB peptide-MHC binding, purified MHC/competitive/fluorescence; filed as Kd, often an IC50 or EC50 that approximates it; ≥ and ≤ were set here for values at or beyond the usual limits of such assays", "settings": "source organism: Rickettsia bellii RML369-C"}, "HLA-B*83:01": {"biological_target": "HLA-B*83:01", "assay": "IEDB peptide-MHC binding, purified MHC/competitive/fluorescence; filed as Kd, often an IC50 or EC50 that approximates it; ≥ and ≤ were set here for values at or beyond the usual limits of such assays", "settings": "source organism: Rickettsia bellii RML369-C"}, "HLA-C*06:02": {"biological_target": "HLA-C*06:02", "assay": "IEDB peptide-MHC binding, purified MHC/competitive/fluorescence; filed as Kd, often an IC50 or EC50 that approximates it; ≥ and ≤ were set here for values at or beyond the usual limits of such assays", "settings": "source organism: Rickettsia bellii RML369-C"}}, "data": [{"sequence": "ATATWFQYY", "values": [{"measurement": "Kd", "setting": "HLA-A*01:01", "result": 16.3, "unit": "nM"}, {"measurement": "Kd", "setting": "HLA-A*25:01", "result": "≥ 20000", "unit": "nM"}, {"measurement": "Kd", "setting": "HLA-A*29:02", "result": "≤ 1", "unit": "nM"}, {"measurement": "Kd", "setting": "HLA-A*80:01", "result": 14.2, "unit": "nM"}, {"measurement": "Kd", "setting": "HLA-B*07:02", "result": "≥ 20000", "unit": "nM"}, {"measurement": "Kd", "setting": "HLA-B*40:01", "result": "≥ 20000", "unit": "nM"}, {"measurement": "Kd", "setting": "HLA-B*51:01", "result": "≥ 20000", "unit": "nM"}]}, {"sequence": "FAYKTGSSM", "values": [{"measurement": "Kd", "setting": "HLA-C*03:03", "result": "≤ 1", "unit": "nM"}, {"measurement": "Kd", "setting": "HLA-C*05:01", "result": 1480, "unit": "nM"}, {"measurement": "Kd", "setting": "HLA-C*07:02", "result": 876, "unit": "nM"}, {"measurement": "Kd", "setting": "HLA-C*08:02", "result": 90, "unit": "nM"}, {"measurement": "Kd", "setting": "HLA-C*12:03", "result": "≤ 1", "unit": "nM"}, {"measurement": "Kd", "setting": "HLA-C*14:02", "result": 114, "unit": "nM"}, {"measurement": "Kd", "setting": "HLA-C*15:02", "result": 4, "unit": "nM"}, {"measurement": "Kd", "setting": "HLA-A*68:23", "result": 51.2, "unit": "nM"}, {"measurement": "Kd", "setting": "HLA-B*15:02", "result": 12.7, "unit": "nM"}, {"measurement": "Kd", "setting": "HLA-B*15:42", "result": "≥ 5000", "unit": "nM"}, {"measurement": "Kd", "setting": "HLA-B*27:20", "result": 23.4, "unit": "nM"}, {"measurement": "Kd", "setting": "HLA-B*45:06", "result": "≥ 5000", "unit": "nM"}, {"measurement": "Kd", "setting": "HLA-B*83:01", "result": "≥ 5000", "unit": "nM"}, {"measurement": "Kd", "setting": "HLA-C*06:02", "result": 125, "unit": "nM"}]}]}
